The target in assay [1] is T1, recombinant human CD33 (human, UniProt P20138 18-259, limits assumed).
T1 construct: also called coated CD33
The assay is described as follows: ELISA, coated recombinant human CD33, purified His/Flag-tagged ScFv, anti-Flag-HRP. Here is the method:
(§1) 50 μl of the diluted recombinant human CD33 in PBS at 2 ug/ml was coated in a 96-well plate at 4° C. overnight. Purified ScFv or VHs (from above) with His and Flag tags were serially diluted and added into the target protein coated wells. After washing, a 1:3000 diluted HRP conjugated anti-Flag antibody was added for 1 hr at RT. After washing, 3, 3, 5, 5′-Tetramethylbenzidine (TMB) substrate was added, 1N H₂SO₄ was added to stop the reaction after incubation at room temperature for 10 minutes, and the O.D. was read at 450 nm to quantify the relative ability of ScFv to bind CD33.

The target in assay [2] is T1, recombinant human CD33. Briefly: ELISA, coated recombinant human CD33, purified His/Flag-tagged VH, anti-Flag-HRP. On the procedure: as §1

T1 sequence (P20138 18-259 limits assumed): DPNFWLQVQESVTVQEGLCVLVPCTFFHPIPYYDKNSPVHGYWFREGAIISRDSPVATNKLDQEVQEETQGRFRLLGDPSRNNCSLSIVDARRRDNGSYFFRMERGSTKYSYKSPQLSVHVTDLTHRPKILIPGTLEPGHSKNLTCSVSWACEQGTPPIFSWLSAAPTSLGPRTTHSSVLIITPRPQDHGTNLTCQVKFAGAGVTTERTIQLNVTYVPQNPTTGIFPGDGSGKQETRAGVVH

B1: m1033-15 (ScFv15) human anti-CD33 ScFv binder, soluble (scFv)
scFv: EVQLVQSGAEVKKPGESLKISCKGSGYSFTSYWIGWVRQMPGKGLEWMGIIYPGDSDTRYSPSFQGQVTISADKSISTAYLQWSSLKASDTAMYYCARLTTAGGMDVWGQGTTVTVSSGGGGSGGGGSGGGGSEIVLTQSPLSLPVTLGQPASISCRSSQSLVHSDGNTYLSWLHQRPGQPPRLLMYKISNRFSGVTDRFSGSGSGTDFTLKISRVEAEDVGVYYCMQGIHLPLTFGGGTKLEIK
notes: also called CD33 ScFv 15; not shown: His and Flag tags
For B1, the binding result with recombinant human CD33 [1] is “binds”.

B2: m1033-4 (VH-4) human anti-CD33 VH domain binder, soluble (VHH)
VHH: EVQLVESGGGLVQPGGSLRLSCAASGFTFSSYGMSWVRQAPRQGLEWVANIKQDGSEKYYADSVKGRFTISRDNSKNTLYLQMNSLRAEDTATYYCAKENVDWGQGTLVTVSS
notes: Human heavy chain variable domain only (not camelid), from a phage library, expressed in E. coli HB2151 and purified on Ni-NTA; also called CD33_4; CD33 VH-4; not shown: His and Flag tags
With B2, the binding result with recombinant human CD33 [2] is on record as “binds”.

B3: m1033-9 (ScFv9) human anti-CD33 ScFv binder, soluble (scFv)
scFv: QVQLVQSGAEVKKPGESLRISCKGSGFSFPTYWIGWVRQMPGKGLEWMGIIYPGDSDTRYSPSFQGQVTISADKSISTAYLQWSSLKASDTAMYYCARLVGDGYNTGAFDIWGQGTMVTVSSGGGGSGGGGSGGGGSDIVMTHTPLSLSVTPGQPASISCKSSQSLLHSNGKTYLYWYLQKPGQPPQLLIYGASNRFSGVPDRFSGSGSGTDFTLKISRVEAEDVGVYYCMQSIQLPITFGQGTRLEIK
notes: also called CD33 ScFv 9; not shown: His and Flag tags
Turning to B3, the binding result in the assay with recombinant human CD33 [1] is “binds”.

B4: m1033-10 (ScFv10) human anti-CD33 ScFv binder, soluble (scFv)
scFv: QVQLQQSGPGLVKPSQTLSLTCAISGDSVSSNTAAWNWIRQSPSRGLEWLGRTYYRSKWYNDYAVPVKSRITINPDTSKNQFSLQLNSVTPEDTAVYYCARETYYYGSGSYWDAFDIWGQGTTVTVSSGGGGSGSGGSGGGGSQSVVTQPPSVSAAPGQKVTISCSGSSSNIGNNYVSWYQQLPGTAPKLFIYKNNQRPSEVPDRFSGSKSGTSASLAISGLQSDDEADYYCAAWDDRLNGYVFGTGTKVTVL
notes: also called CD33 ScFv 10; not shown: His and Flag tags
For B4, the binding result with recombinant human CD33 [1] was “binds”.

B5: m1033-12 (ScFv12) human anti-CD33 ScFv binder, soluble (scFv)
scFv: QVQLQQSGPGLVKPSQTLSLTCAISGDSVSSNSAAWNWIRQSPSRGLEWLGGTYYRSKWYNDYAVSVKSRIIINADTSKNQFSLQLNSVTPEDTAVYYCARGYYYDSTDWFDPWGQGTLVTVSSGGGGSGGGGSGGGGSSSELTQDPTVSVALGQTVRITCQGDSLRSYYASWYQQKPGQAPVLVIYGKNNRPSGIPDRFSGSSSGNTASLTITGAQAEDEADYYCSSRDGSGHPYLFGPGTKVTVL
notes: also called CD33 ScFv 12; not shown: His and Flag tags
For the molecule B5, in the assay with recombinant human CD33 [1], the binding result was “binds”.

B6: m1033-2 (VH-2) human anti-CD33 VH domain binder, soluble (VHH)
VHH: EVQLVESGGGLVQPGGSLRLSCAASGFTFSSYGMSWVRQAPRKGLEWIGEINHSGSTNYNPSLKSRVTISRDNSKNTLYLQMNSLRAEDTATYYCARPLNYYYYYMDVWGKGTTVTVSS
notes: Human heavy chain variable domain only (not camelid), from a phage library, expressed in E. coli HB2151 and purified on Ni-NTA; also called CD33 VH-2; not shown: His and Flag tags
With B6, the binding result in the assay with recombinant human CD33 [2] was “binds”.

These data come from patent publication US20200101109A1 (LENTIGEN TECHNOLOGY, published 2020).
